# According to the supplement of paper PMC9112550, “Optimization of the antimicrobial peptide Bac7 by deep mutational scanning” (BMC Biology, 2022):
# Test system: Escherichia coli TOP10
# Test: shrunken log2 fold change of peptide-encoding DNA abundance (4.5 h post-induction vs induction); higher = less antimicrobial activity (less host growth inhibition)
# Conditions: time post-induction: 4.5 h; library: site-saturation at positions 5, 18, 19, 20
# 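Also: peptides expressed intracellularly from a pBAD plasmid library in pooled LB shake-flask culture, induced with 0.3% L-arabinose, DNA abundance read by NGS, three biological replicates, DESeq2 with apeglm shrinkage.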
row,Sequence,shrunken log2 fold change
1,RRIRGRPPRLPRPRPRPNTHPRP,0.102
2,RRIRCRPPRLPRPRPRPTDGPRP,-0.116
3,RRIRMRPPRLPRPRPRPCLFPRP,-0.155
4,RRIRPRPPRLPRPRPRPQYDPRP,-0.638
5,RRIRSRPPRLPRPRPRPGCGPRP,0.62
6,RRIRSRPPRLPRPRPRPMKTPRP,0.0178
7,RRIRARPPRLPRPRPRPYEFPRP,0.182
8,RRIRNRPPRLPRPRPRPKYLPRP,-0.0259
9,RRIRPRPPRLPRPRPRPRQDPRP,0.351
10,RRIRNRPPRLPRPRPRPTEHPRP,0.141
11,RRIRQRPPRLPRPRPRPDESPRP,0.0454
12,RRIRARPPRLPRPRPRPFRMPRP,-0.184
13,RRIRARPPRLPRPRPRPLEAPRP,1.21
14,RRIRFRPPRLPRPRPRPWNSPRP,-0.976
15,RRIRIRPPRLPRPRPRPNNKPRP,-0.85
16,RRIRCRPPRLPRPRPRPPTMPRP,0.143
17,RRIRSRPPRLPRPRPRPEDAPRP,0.821
18,RRIRKRPPRLPRPRPRPCFKPRP,0.0163
19,RRIRCRPPRLPRPRPRPHNPPRP,-0.377
20,RRIRGRPPRLPRPRPRPKGSPRP,1.03
21,RRIRSRPPRLPRPRPRPGIHPRP,0.115
22,RRIRTRPPRLPRPRPRPPYWPRP,0.0831
23,RRIRLRPPRLPRPRPRPPPEPRP,1.35
24,RRIRQRPPRLPRPRPRPVYSPRP,-0.0563
25,RRIRTRPPRLPRPRPRPPMSPRP,-0.0702

row,Sequence,shrunken log2 fold change
1,RRIRRRPPRLPRPRPRPDESPRP,0.037
2,RRIRCRPPRLPRPRPRPCLHPRP,-0.824
3,RRIRPRPPRLPRPRPRPCMDPRP,-0.561
4,RRIRPRPPRLPRPRPRPHTRPRP,0.171
5,RRIRCRPPRLPRPRPRPMIIPRP,-0.18
6,RRIRWRPPRLPRPRPRPKHLPRP,0.0564
7,RRIRPRPPRLPRPRPRPQWWPRP,0.111
8,RRIRVRPPRLPRPRPRPSFMPRP,-0.384
9,RRIRTRPPRLPRPRPRPGGAPRP,0.38
10,RRIRARPPRLPRPRPRPWWKPRP,-0.00149
11,RRIRYRPPRLPRPRPRPLVDPRP,-0.289
12,RRIRQRPPRLPRPRPRPPTYPRP,-0.0183
13,RRIRHRPPRLPRPRPRPMVCPRP,-0.0703
14,RRIRVRPPRLPRPRPRPFKCPRP,-0.0453
15,RRIRMRPPRLPRPRPRPTMEPRP,0.868
16,RRIRARPPRLPRPRPRPICGPRP,0.248
17,RRIRSRPPRLPRPRPRPGWDPRP,0.444
18,RRIRWRPPRLPRPRPRPAPLPRP,0.512
19,RRIRGRPPRLPRPRPRPQKFPRP,-0.0494
20,RRIRIRPPRLPRPRPRPCWCPRP,-0.063
21,RRIRLRPPRLPRPRPRPCLIPRP,-0.0321
22,RRIRWRPPRLPRPRPRPQATPRP,0.381
23,RRIRSRPPRLPRPRPRPRTQPRP,0.107
24,RRIRSRPPRLPRPRPRPNTIPRP,-0.511
25,RRIRCRPPRLPRPRPRPVKPPRP,0.477

row,Sequence,shrunken log2 fold change
1,RRIRRRPPRLPRPRPRPQFEPRP,0.16
2,RRIRRRPPRLPRPRPRPQATPRP,0.233
3,RRIRRRPPRLPRPRPRPLDTPRP,0.168
4,RRIRKRPPRLPRPRPRPQCDPRP,0.279
5,RRIRKRPPRLPRPRPRPNCKPRP,0.495
6,RRIRFRPPRLPRPRPRPCEKPRP,0.00738
7,RRIRGRPPRLPRPRPRPWDLPRP,-0.0503
8,RRIRHRPPRLPRPRPRPVPPPRP,0.244
9,RRIRRRPPRLPRPRPRPCGLPRP,0.15
10,RRIRNRPPRLPRPRPRPIPTPRP,-0.0847
11,RRIRKRPPRLPRPRPRPWDAPRP,0.496
12,RRIRLRPPRLPRPRPRPMSTPRP,-0.302
13,RRIRTRPPRLPRPRPRPGHFPRP,-0.215
14,RRIRWRPPRLPRPRPRPPITPRP,-0.173
15,RRIRFRPPRLPRPRPRPKGPPRP,0.0269
16,RRIRVRPPRLPRPRPRPQWFPRP,-0.134
17,RRIRNRPPRLPRPRPRPRHNPRP,-0.403
18,RRIRYRPPRLPRPRPRPFFEPRP,-0.482
19,RRIRRRPPRLPRPRPRPQHHPRP,-0.0809
20,RRIRKRPPRLPRPRPRPVLMPRP,0.471
21,RRIRWRPPRLPRPRPRPQTYPRP,-1.17
22,RRIRSRPPRLPRPRPRPGRVPRP,0.162
23,RRIRHRPPRLPRPRPRPSTDPRP,-0.406
24,RRIRKRPPRLPRPRPRPYGQPRP,-0.306
25,RRIRWRPPRLPRPRPRPRKFPRP,0.295

row,Sequence,shrunken log2 fold change
1,RRIRQRPPRLPRPRPRPECEPRP,0.028
2,RRIRARPPRLPRPRPRPACTPRP,0.668
3,RRIRWRPPRLPRPRPRPQQIPRP,-0.0385
4,RRIRVRPPRLPRPRPRPHAGPRP,0.108
5,RRIRARPPRLPRPRPRPWWYPRP,-0.172
6,RRIRQRPPRLPRPRPRPPGCPRP,0.342
7,RRIRKRPPRLPRPRPRPFNPPRP,-0.0407
8,RRIRRRPPRLPRPRPRPLFDPRP,0.136
9,RRIRMRPPRLPRPRPRPHTCPRP,-0.0858
10,RRIRGRPPRLPRPRPRPLRRPRP,1.54
11,RRIRVRPPRLPRPRPRPWYLPRP,-0.425
12,RRIRCRPPRLPRPRPRPLRFPRP,0.0668
13,RRIRQRPPRLPRPRPRPETMPRP,0.192
14,RRIRQRPPRLPRPRPRPSCCPRP,-0.408
15,RRIRHRPPRLPRPRPRPHYNPRP,-1.11
16,RRIRNRPPRLPRPRPRPSSCPRP,-0.063
17,RRIRRRPPRLPRPRPRPEKLPRP,0.128
18,RRIRRRPPRLPRPRPRPVEEPRP,0.105
19,RRIRWRPPRLPRPRPRPPLGPRP,0.416
20,RRIRDRPPRLPRPRPRPVCSPRP,0.222
21,RRIRQRPPRLPRPRPRPRMNPRP,-0.15
22,RRIRIRPPRLPRPRPRPALRPRP,0.00782
23,RRIRDRPPRLPRPRPRPTQIPRP,0.114
24,RRIRGRPPRLPRPRPRPYTWPRP,0.0845
25,RRIRYRPPRLPRPRPRPKRMPRP,-0.207

row,Sequence,shrunken log2 fold change
1,RRIRDRPPRLPRPRPRPKIAPRP,-0.0493
2,RRIRHRPPRLPRPRPRPIRPPRP,-0.125
3,RRIRRRPPRLPRPRPRPGVNPRP,-0.271
4,RRIRYRPPRLPRPRPRPMDNPRP,-0.0386
5,RRIRIRPPRLPRPRPRPQRCPRP,-0.0109
6,RRIRVRPPRLPRPRPRPSKYPRP,-0.783
7,RRIRRRPPRLPRPRPRPTLCPRP,0.581
8,RRIRSRPPRLPRPRPRPKVHPRP,-0.231
9,RRIRARPPRLPRPRPRPRVGPRP,0.352
10,RRIRMRPPRLPRPRPRPMWKPRP,-0.00141
11,RRIRIRPPRLPRPRPRPWGLPRP,-0.192
12,RRIRKRPPRLPRPRPRPRECPRP,-0.0199
13,RRIRERPPRLPRPRPRPQESPRP,-0.239
14,RRIRLRPPRLPRPRPRPCFQPRP,-0.512
15,RRIRGRPPRLPRPRPRPTWVPRP,0.493
16,RRIRKRPPRLPRPRPRPYHWPRP,-0.164
17,RRIRCRPPRLPRPRPRPRNCPRP,-0.288
18,RRIRPRPPRLPRPRPRPVMAPRP,-0.128
19,RRIRCRPPRLPRPRPRPNHPPRP,-0.153
20,RRIRARPPRLPRPRPRPFMLPRP,-0.0197
21,RRIRHRPPRLPRPRPRPRFLPRP,0.0768
22,RRIRRRPPRLPRPRPRPVENPRP,0.0788
23,RRIRLRPPRLPRPRPRPNAKPRP,-0.0021
24,RRIRCRPPRLPRPRPRPHDGPRP,0.0999
25,RRIRQRPPRLPRPRPRPRHNPRP,-0.0654

row,Sequence,shrunken log2 fold change
1,RRIRMRPPRLPRPRPRPMSLPRP,-0.207
2,RRIRWRPPRLPRPRPRPEHCPRP,0.177
3,RRIRRRPPRLPRPRPRPKPKPRP,0.273
4,RRIRIRPPRLPRPRPRPIKDPRP,-0.467
5,RRIRIRPPRLPRPRPRPQTAPRP,0.101
6,RRIRARPPRLPRPRPRPRSKPRP,0.374
7,RRIRHRPPRLPRPRPRPPYRPRP,-0.399
8,RRIRYRPPRLPRPRPRPVCDPRP,-0.623
9,RRIRIRPPRLPRPRPRPMLSPRP,-0.403
10,RRIRQRPPRLPRPRPRPKHRPRP,-0.0509
11,RRIRMRPPRLPRPRPRPDRYPRP,-0.0269
12,RRIRCRPPRLPRPRPRPNISPRP,0.039
13,RRIRVRPPRLPRPRPRPAIVPRP,-0.149
14,RRIRFRPPRLPRPRPRPKKYPRP,-0.242
15,RRIRARPPRLPRPRPRPAKTPRP,0.179
16,RRIRYRPPRLPRPRPRPCLVPRP,-0.0874
17,RRIRERPPRLPRPRPRPAIQPRP,-0.337
18,RRIRIRPPRLPRPRPRPTRKPRP,-0.101
19,RRIRPRPPRLPRPRPRPRVIPRP,0.033
20,RRIRIRPPRLPRPRPRPEFCPRP,-0.0252
21,RRIRNRPPRLPRPRPRPKIHPRP,-0.719
22,RRIRRRPPRLPRPRPRPADEPRP,2.06
23,RRIRRRPPRLPRPRPRPWSSPRP,0.0446
24,RRIRSRPPRLPRPRPRPCFIPRP,-0.688
25,RRIRYRPPRLPRPRPRPFTPPRP,-0.889
